Results reported in patent publication US20210386866A1 (DEVELOPMENT CENTER FOR BIOTECHNOLOGY, published 2021).

Columns and labels:
[1] = target: T1, human mesothelin recombinant protein (human, UniProt Q13421 296-580, limits assumed); experiment: ELISA, plate coated with mesothelin at 1 ug/mL, detection with anti-human Kappa light chains
T1 construct: also called mesothelin protein; MSLN
Protocol: (§1) 100 μL of mesothelin in a coating buffer at a concentration of 1 μg/mL was added to and coated on each well of a plate. The plates were sealed and incubated at 4° C. overnight. The wells were aspirated and washed with 300 μL of PBST (0.05% Tween 20) for 3 times. The wells were blocked by adding 200 μL of PBS-5% skim milk and incubated at 37° C. for 1 hour. The wells were aspirated and washed with 300 μL/well of PBST (0.05% Tween 20) for 3 times. 100 μL of 400 ng ADC sample diluted with PBS was added to each well, and the plates were then incubated at 37° C. for 1 hour. The wells were aspirated and washed with 300 μL of PBST (0.05% Tween 20) for 3 times. 50 μl of anti-human Kappa light chains (1:5000) was added to each well, and the plates were incubated at 37° C. for 1 hour. The wells were aspirated and washed with 300 μL/well of PBST (0.05% Tween 20) for 3 times. 100 μl of TMB was added to each well, and the plates were incubated at room temperature for 15 minutes. The color development was stopped by adding 100 μL of 1N HCl.

[2] = target: T1, human mesothelin recombinant protein; experiment: ELISA, plate coated with mesothelin 1 ug/mL, detection with anti-human kappa light chain antibody
Protocol: as §1

[3] = target: T1, human mesothelin recombinant protein; experiment: SPR, BIAcore T200, mesothelin coupled to CM5 chip, antibody injected (0.3125 nM to 40 nM), 25 degree C, 1:1 Langmuir model
Protocol: Carboxymethylated dextran biosensor chips (CM5, Cytiva Inc.) were activated with N-ethyl-N′-(3-dimethylaminopropyl)-carbodiimide hydrochloride (EDC) and N-hydroxysuccinimide (NHS) according to the supplier's instructions. Mesothelin protein was diluted with 10 mM sodium acetate, pH 4.0, into 5 μg/ml before injection at a flow rate of 10 μL/minute to achieve approximately 1500 response units (RU) of coupled protein followed by the injection of 1M ethanolamine to block unreacted groups. For kinetics measurements, two-fold serial dilutions of anti-mesothelin mAb (0.3125 nM to 40 nM) were injected in HBS-EP+ Biacore running buffer provided by the manufacturer (Cytiva Inc.) at 25 degree C. at a flow rate of 30 μL/min, and binding responses on the mesothelin protein were corrected by subtraction of responses on a blank flow cell. Association rates (kon or ka) and dissociation rates (koff or kd) were calculated using a simple one-to-one Langmuir binding model with separate fittings of kon and koff was used. (Cytiva.™. Biacore Insight Evaluation Software).

[4] = target: T1, human mesothelin recombinant protein; experiment: ELISA, plate coated with mesothelin protein, serial dilutions of antibody, non-linear regression
Protocol: (§2) ELISA plates were coated with 1˜2 μg/100 μl per well of mesothelin protein. Wells were rinsed for 3 times with PBS and blocked with 300 μl 5% MPBS per well for 2 hr at 37° C. After washing with PBS, wells were incubated with serial diluted mesothelin antibodies in 5% MPBS for 1.5 hours at 37° C. The plates were washed and goat polyclonal anti-human IgG-HRP antibody (1:10,000) (Jackson ImmunoResearch) was added into each well. The absorbance was measured as described above and the binding affinities of antibodies were calculated by non-linear regression with Prism software (GraphPad).

[5] = target: T1, human mesothelin recombinant protein; experiment: ELISA, plate coated with mesothelin protein, serial dilutions of antibody, detection with anti-human IgG-HRP
Protocol: as §2

[6] = target: T1, human mesothelin recombinant protein; experiment: SPR, Biacore T100, antibody captured on anti-human IgG-Fc CM5 chip, human mesothelin recombinant protein as analyte (3.7 to 100 nM), 1:1 Langmuir model
Protocol: (§3) The kinetic constant of the anti-mesothelin ADCs interaction against mesothelin was determined by surface plasma resonance (Biacore® T100, Biacore, Inc., Piscataway, N.J.). The flow cell of the CM5 wafer was fixed with approximately 10,000 reaction units (RU) of anti-human IgG-Fc (Biacore®) in 10 mM glycine pH 5.0 at 10 μL/min for 600 seconds. 10 μg/mL of anti-mesothelin antibody and anti-mesothelin ADCs diluted in TBS at 10 μl/min were captured on CM5 chips. Four concentrations (from 3.7 to 100 nM) of human mesothelin recombinant protein and zero concentration (flow buffer) in 100 μl/min binding were recorded in PBS containing 1 mM CaCl₂ for 3 minutes. The dissociation of the complex was measured for 10 minutes. The water surface was regenerated by injecting 3 M MgCl₂ and 3 mM EGTA at 10 μl/min for 60 seconds. The curve obtained after subtracting the reference and buffer signals was taken into the 1:1 Langmuir binding model using the Biacore® T100 evaluation software (Biacore®).

[7] = target: T1, human mesothelin recombinant protein; experiment: SPR, Biacore T100, ADC captured on anti-human IgG-Fc CM5 chip, human mesothelin recombinant protein as analyte (3.7 to 100 nM), 1:1 Langmuir model
Protocol: as §3

T1 sequence (Q13421 other isoform, or with tags, fused parts or gaps limits assumed): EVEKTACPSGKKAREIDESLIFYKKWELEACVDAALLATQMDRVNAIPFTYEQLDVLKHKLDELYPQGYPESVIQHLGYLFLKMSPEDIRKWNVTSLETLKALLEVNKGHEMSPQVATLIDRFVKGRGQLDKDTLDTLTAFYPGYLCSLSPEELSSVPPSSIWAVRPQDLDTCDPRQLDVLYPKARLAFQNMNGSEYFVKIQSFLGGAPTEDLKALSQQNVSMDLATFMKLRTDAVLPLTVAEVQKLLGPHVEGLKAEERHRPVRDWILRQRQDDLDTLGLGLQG

B1: DCBPR2002-2(DBCO-vc-seco-DUBA)-2(DBCO-s-DM1) (other)
VH: QVQLVQSGAEVKKPGASVKVSCKASGYSFTGYTMNWVRQAPGQGLEWMGLITPYNGASSYNQKFRGRVTMTRDTSISTAYMELSRLRSDDTAVYYCARGGYDGRGFDYWGQGTLVTVSS
VL: EIVLTQSPATLSLSPGERATLSCSASSSVSYMHWYQQKPGQAPRLLIYDTSKLASGIPARFSGSGSGTDFTLTISSLEPEDFAVYYCQQWSKHPLTFGQGTKVEIKR
modifications: DBCO-vc-seco DUBA (2 per antibody) and DBCO-S-DM1 (2 per antibody) linked through GlcNAz to the tri-mannosyl N-glycan of the heavy chain constant region (DAR ~4)
For B1, the Kd [1] was 0.0732 nM and the “EC50 (read off the curve)” value [2] was roughly 0.07 nM.

B2: humanized antibody HuSS1 (DCBPR2002) (antibody, V domains shown)
VH: QVQLVQSGAEVKKPGASVKVSCKASGYSFTGYTMNWVRQAPGQGLEWMGLITPYNGASSYNQKFRGRVTMTRDTSISTAYMELSRLRSDDTAVYYCARGGYDGRGFDYWGQGTLVTVSS
VL: EIVLTQSPATLSLSPGERATLSCSASSSVSYMHWYQQKPGQAPRLLIYDTSKLASGIPARFSGSGSGTDFTLTISSLEPEDFAVYYCQQWSKHPLTFGQGTKVEIKR
notes: also called HuSS1-HH; HuSS1 (HH)
In the case of B2, the Kd [1] is reported as 0.0924 nM, the Kd [3] is reported as 0.0025 nM and the koff [3] is reported as 1.12e-05 s⁻¹. For the same binder, the kon [3] was 4.49e+06 M⁻¹ s⁻¹, the Kd [4] was 0.0499 nM and the “EC50 (read off the curve)” value [2] was roughly 0.09 nM. For the same binder, the “EC50 (read off the curve)” value [5] was roughly 0.05 nM and the Kd [6] was 0.0169 nM.

B3: humanized SS1 4D5 (HdSS1) (antibody, V domains shown)
VH: EVQLVESGGGLVQPGGSLRLSCAASGYSFTGYTMNWVRQAPGKGLEWVALITPYNGASSYNQKFRGRFTISRDDSKNTLYLQMNSLRAEDTAVYYCARGGYDGRGFDYWGQGTLVTVSS
VL: DIQMTQSPSSLSASVGDRVTITCSASSSVSYMHWYQQKPGKAPKLLIYDTSKLASGVPSRFSGSGSGTDFTLTISSLQPEDFATYYCQQWSKHPLTFGQGTKVEIKR
notes: also called HdSS1 HH; HdSS1 (HH)
In the case of B3, the Kd [4] is reported as 26.1 nM.

B4: DCBPR2002-4(DBCO-vc-MMAE) (other)
VH: QVQLVQSGAEVKKPGASVKVSCKASGYSFTGYTMNWVRQAPGQGLEWMGLITPYNGASSYNQKFRGRVTMTRDTSISTAYMELSRLRSDDTAVYYCARGGYDGRGFDYWGQGTLVTVSS
VL: EIVLTQSPATLSLSPGERATLSCSASSSVSYMHWYQQKPGQAPRLLIYDTSKLASGIPARFSGSGSGTDFTLTISSLEPEDFAVYYCQQWSKHPLTFGQGTKVEIKR
modifications: DBCO-vc-MMAE linked through GlcNAz to the tri-mannosyl N-glycan of the heavy chain constant region; 4 per antibody (DAR 3.89 by LC-MS)
Work on B4 yielded a Kd [7] of 0.0217 nM and a Kd [1] of 0.133 nM.

B5: DCBPR2002-2(DBCO-vc-MMAE)-2(DBCO-vc-seco-DUBA) (other)
VH: QVQLVQSGAEVKKPGASVKVSCKASGYSFTGYTMNWVRQAPGQGLEWMGLITPYNGASSYNQKFRGRVTMTRDTSISTAYMELSRLRSDDTAVYYCARGGYDGRGFDYWGQGTLVTVSS
VL: EIVLTQSPATLSLSPGERATLSCSASSSVSYMHWYQQKPGQAPRLLIYDTSKLASGIPARFSGSGSGTDFTLTISSLEPEDFAVYYCQQWSKHPLTFGQGTKVEIKR
modifications: DBCO-vc-MMAE (2 per antibody) and DBCO-vc-seco DUBA (2 per antibody) linked through GlcNAz to the tri-mannosyl N-glycan of the heavy chain constant region (DAR ~4)
B5 gave a Kd [7] of 0.0256 nM and a Kd [1] of 0.158 nM.

B6: DCBPR2002-4(DBCO-s-DM1) (other)
VH: QVQLVQSGAEVKKPGASVKVSCKASGYSFTGYTMNWVRQAPGQGLEWMGLITPYNGASSYNQKFRGRVTMTRDTSISTAYMELSRLRSDDTAVYYCARGGYDGRGFDYWGQGTLVTVSS
VL: EIVLTQSPATLSLSPGERATLSCSASSSVSYMHWYQQKPGQAPRLLIYDTSKLASGIPARFSGSGSGTDFTLTISSLEPEDFAVYYCQQWSKHPLTFGQGTKVEIKR
modifications: DBCO-S-DM1 linked through GlcNAz to the tri-mannosyl N-glycan of the heavy chain constant region; 4 per antibody (DAR ~4)
In the case of B6, the Kd [1] is reported as 0.145 nM.

B7: DCBPR2002-4(DBCO-vc-seco-DUBA) (other)
VH: QVQLVQSGAEVKKPGASVKVSCKASGYSFTGYTMNWVRQAPGQGLEWMGLITPYNGASSYNQKFRGRVTMTRDTSISTAYMELSRLRSDDTAVYYCARGGYDGRGFDYWGQGTLVTVSS
VL: EIVLTQSPATLSLSPGERATLSCSASSSVSYMHWYQQKPGQAPRLLIYDTSKLASGIPARFSGSGSGTDFTLTISSLEPEDFAVYYCQQWSKHPLTFGQGTKVEIKR
modifications: DBCO-vc-seco DUBA linked through GlcNAz to the tri-mannosyl N-glycan of the heavy chain constant region; 4 per antibody (DAR ~4)
B7 gave a Kd [1] of 0.0975 nM.

B8: DCBPR2002-2(DBCO-vc-MMAE)-2(DBCO-s-DM1) (other)
VH: QVQLVQSGAEVKKPGASVKVSCKASGYSFTGYTMNWVRQAPGQGLEWMGLITPYNGASSYNQKFRGRVTMTRDTSISTAYMELSRLRSDDTAVYYCARGGYDGRGFDYWGQGTLVTVSS
VL: EIVLTQSPATLSLSPGERATLSCSASSSVSYMHWYQQKPGQAPRLLIYDTSKLASGIPARFSGSGSGTDFTLTISSLEPEDFAVYYCQQWSKHPLTFGQGTKVEIKR
modifications: DBCO-vc-MMAE (2 per antibody) and DBCO-S-DM1 (2 per antibody) linked through GlcNAz to the tri-mannosyl N-glycan of the heavy chain constant region (DAR ~4)
In the case of B8, the Kd [1] is reported as 0.136 nM.
